Assay results reported in patent US9260500B2, “Peptide and use thereof” (Takeda Pharmaceutical Company Limited, priority 2009, dated 2016).
Starred links: 1 amine or outer side, 2 acyl side, 3 side chain; linkers in the order of their positions; H or OH if unused. Non-standard residues stand in square brackets, D forms with d. No end group written: not given here. *: point of attachment. 4‑Guanidinomethylbenzoyl = N=C(N)NCc1ccc(C(=O)*)cc1; tBuAla = CC(C)(C)C[C@H](N)C(=O)O; 4Pal = N[C@@H](Cc1ccncc1)C(=O)O; Aad = N[C@@H](CCCC(=O)O)C(=O)O; Cha = N[C@@H](CC1CCCCC1)C(=O)O; Isonicotinoyl = O=C(c1ccncc1)*; Suc = O=C(CCC(=O)[*:2])[*:1]; 4Amb = NCc1ccc(C(=O)O)cc1; Iva = CC[C@](C)(N)C(=O)O; Nle = CCCC[C@H](N)C(=O)O; Aib = CC(C)(N)C(=O)O; Ahx = NCCCCCC(=O)O

Assays:
human Y2 receptor [1] = target: T1, human Y2 receptor (Homo sapiens, UniProt P49146); assay: Receptor Binding Assay (RBA) for Human Y2, [125I]-PYY displacement on hY2R/CHO membrane fraction; conditions: IC50 of test compound/IC50 of PYY(3-36) (PYY(3-36) taken as 1)
T1 construct: expressed in transfected cells; membrane fraction
T1 sequence (P49146 1-381): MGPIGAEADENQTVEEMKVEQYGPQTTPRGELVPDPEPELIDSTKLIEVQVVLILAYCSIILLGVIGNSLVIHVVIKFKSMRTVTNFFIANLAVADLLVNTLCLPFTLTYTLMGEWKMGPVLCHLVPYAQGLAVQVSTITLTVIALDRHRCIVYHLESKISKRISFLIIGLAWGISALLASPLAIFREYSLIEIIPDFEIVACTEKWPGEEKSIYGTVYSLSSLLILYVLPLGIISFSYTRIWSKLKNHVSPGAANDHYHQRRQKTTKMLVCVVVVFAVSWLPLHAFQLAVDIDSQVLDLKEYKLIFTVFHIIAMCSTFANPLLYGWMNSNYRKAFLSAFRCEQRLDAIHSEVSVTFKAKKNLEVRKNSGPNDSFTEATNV
Description: (1) Construction of Expression Plasmid for the Human Y2 Receptor (Y2R) Gene
PCR was performed by a reaction using Pfu DNA polymerase ([…]), with a human brain cDNA (PT3158-1, Clontech) as the template, wherein synthetic DNAs with the following sequences were used as a combination of 5′ and 3′ primers, whereby the human Y2R gene was cloned. Primer 1 was prepared on the basis of base sequence information on the human Y2R gene (Refseq ID No. NM_000910) with the addition of Kozak's consensus sequence. Primer 2 was prepared on the basis of base sequence information on the human Y2R gene.
The PCR product obtained was cloned into pCR4-Blunt-TOPO (Invitrogen), and the plasmid was extracted according to a conventional method (QIAwell 8 Plus, QIAGEN). After confirming the base sequence, the human Y2R gene was re-cloned by a PCR reaction with the plasmid DNA as the template, using Primer 1 as the 5′ primer and Primer 2 as the 3′ primer. The PCR was performed using the Pyrobest DNA polymerase (TaKaRa). The PCR product obtained was re-cloned into pCR-Blunt II-TOPO (Invitrogen), and the plasmid was extracted according to a conventional method (QIAGEN). An Xho I restriction enzyme digestion site and an Spe I restriction enzyme digestion site are present in the cloning site of the pCR-Blunt II-TOPO; a plasmid clone was selected wherein the human Y2R gene was inserted in the orientation such that the Xho I restriction enzyme digestion site was positioned upstream of Primer 1, and the Spe I restriction enzyme digestion site was positioned downstream of Primer 2. After confirming the base sequence, the plasmid clone was digested with the restriction enzymes Xho I and Spe I to yield a DNA fragment. The DNA fragment was inserted into the animal cell expression vector pAKKO-111H (the same plasmid as pAKKO-1.111H described in Biochem. Biophys. Acta, Hinuma, S. et al., 1219, 251-259 (1994)), which was enzymatically digested with Sal I and Spe I, to yield the expression plasmid pAK-hY2R (pAKKO-111H/Y2R).
(2) Test Method: Receptor Binding Assay (RBA) for Human Y2
A human NPY2R (hY2R) stable expression cell line was acquired by transducing the animal cell expression plasmid pAK-hY2R into CHO/dhfr-cells using the CellPhect Transfection kit (Amersham Pharmacia Biotech Co.). First, 240 μl of Buffer A (attached to the CellPhect Transfection kit) was added to 9.6 μg of the plasmid DNA dissolved in 240 μl of distilled water; this mixture was stirred and allowed to stand for 10 minutes, after which 480 μL of Buffer B (attached to the CellPhect Transfection kit) was added, and the mixture was vigorously stirred to form a liposome containing the DNA. 2.5×10^5 or 4×10^5 CHO/dhfr− cells (obtained from ATCC) were seeded to 60 mm petri dishes, and cultured in Ham's F-12 medium (Sigma Co.) containing 10% fetal bovine serum (BioWest Co.) at 37° C. in 5% gaseous carbon dioxide for 1 day, after which 480 μL of the liposome was added drop by drop on to the cells in each petri dish. This was cultured at 37° C. in 5% gaseous carbon dioxide for 6 hours, after which the cells were twice washed with serum-free Ham's F-12 medium; 3 mL of 15% glycerol was added onto the cells in the petri dish and treated for 2 minutes. This was again washed 3 times with serum-free Ham's F-12 medium, after which the cells were cultured in Ham's F-12 medium containing 10% fetal bovine serum at 37° C. in 5% gaseous carbon dioxide. The cells were dispersed by trypsinization and recovered from the petri dishes, and seeded to a 6-well plate at 2.5×10^4 or 4×10^4 cells per well; cultivation was begun in Dulbecco's modified Eagle medium <DMEM> medium (Sigma Co.) containing dialyzed 10% fetal bovine serum (Invitrogen Co.) at 37° C. in 5% gaseous carbon dioxide. Since plasmid-introduced transformant CHO cells grow in the medium, whereas cells without plasmid introduction die gradually, about 20 colonies of transformed CHO cell that had grown 9-13 days after the start of the cultivation were isolated. […]

human Y2 receptor [2] = target: T1, human Y2 receptor; assay: Human Y2 Receptor G Protein Binding Assay (GBA), [35S]GTPγS; assay type: biochemical; conditions: EC50 of test compound/EC50 of PYY(3-36) (PYY3-36 taken as 1), hY2R/CHO membrane fraction
Description: (3) Test Method: Human Y2 Receptor G Protein Binding Assay (GBA)
The agonist activity of the compound of the present invention against the human Y2 receptor was measured by the method described below.
2 μL of the test compound, serially diluted with DMSO from 100 μM to 1 nM, was dispensed to a 96-well plate, and 100 μL of the membrane fraction, previously diluted with an assay buffer (50 mM Tris, 5 mM MgCl2, 150 mM NaCl, […], 0.03% NaN3, 0.1% BSA, pH 7.4) to 1 μg protein/mL, was dispensed thereto, subsequently, 100 μL of a [^35S]GTPγS (NEG030H, PerkinElmer, previously diluted with the assay buffer to 1 nM) was added, and they were mixed by pipetting. After incubation at room temperature for 120 minutes, the mixture was filtered through the cell harvester FilterMate (PerkinElmer) using the UniFilter-96 GF/C (PerkinElmer), and the filter was washed 3 times with a filtering buffer (50 mM Tris, 5 mM MgCl2, 150 mM NaCl, 0.03% NaN3, 0.05% CHAPS, pH 7.4). Thereafter, UniFilter-96 GF/C was dried in a mechanical drier for 1 hour, 15 μl of the liquid scintillator MicroScint O (PerkinElmer) was added to each well, and a measurement was taken using TopCount (PerkinElmer). The data obtained were analyzed using Prism to calculate the EC50 value. The agonist activity of the test compound was expressed as a ratio to the EC50 value of PYY3-36 taken as 1 (EC50 Ratio: EC50 of test compound/EC50 of PYY(3-36)). The results are shown in the GBA column in Table 5 (Table 5-1-Table 5-10).

## 3-Carboxypropionyl-[Acp22, D-Pro24, Cha27,36, Leu(Me)28, Lys30, Aib31]-PYY(22-36) (Suc-[Ahx]S[dP]RH[Cha][tBuAla]NK[Aib]TRQR[Cha]-NH2; SMILES C[C@@H](O)[C@H](NC(=O)C(C)(C)NC(=O)[C@H](CCCCN)NC(=O)[C@H](CC(N)=O)NC(=O)[C@H](CC(C)(C)C)NC(=O)[C@H](CC1CCCCC1)NC(=O)[C@H](Cc1c[nH]cn1)NC(=O)[C@H](CCCNC(=N)N)NC(=O)[C@H]1CCCN1C(=O)[C@H](CO)NC(=O)CCCCCNC(=O)CCC(=O)O)C(=O)N[C@@H](CCCNC(=N)N)C(=O)N[C@@H](CCC(N)=O)C(=O)N[C@@H](CCCNC(=N)N)C(=O)N[C@@H](CC1CCCCC1)C(N)=O) [compound No. 185]
Human Y2 receptor [1]
  RBA IC50 Ratio: 1.7
Human Y2 receptor [2]
  GBA EC50 Ratio: 1.2

## 4-Aminomethylbenzoyl-[Ala26, Ile28, VAl31]-PYY(25-36) ([4Amb]RAYINLVTRQRY-NH2; N-terminus assumed; SMILES CC[C@H](C)[C@H](NC(=O)[C@H](Cc1ccc(O)cc1)NC(=O)[C@H](C)NC(=O)[C@H](CCCNC(=N)N)NC(=O)c1ccc(CN)cc1)C(=O)N[C@@H](CC(N)=O)C(=O)N[C@@H](CC(C)C)C(=O)N[C@H](C(=O)N[C@H](C(=O)N[C@@H](CCCNC(=N)N)C(=O)N[C@@H](CCC(N)=O)C(=O)N[C@@H](CCCNC(=N)N)C(=O)N[C@@H](Cc1ccc(O)cc1)C(N)=O)[C@@H](C)O)C(C)C) [compound No. 39]
Human Y2 receptor [1]
  RBA IC50 Ratio: 7.2
Human Y2 receptor [2]
  GBA EC50 Ratio: 4.0

## 4-Guanidinomethylbenzoyl-[Iva25, Cha27,36, Aib28,31, Lys30]-PYY(25-36) ({4‑Guanidinomethylbenzoyl}-[Iva]H[Cha][Aib]NK[Aib]TRQR[Cha]-NH2; SMILES CC[C@](C)(NC(=O)c1ccc(CNC(=N)N)cc1)C(=O)N[C@@H](Cc1c[nH]cn1)C(=O)N[C@@H](CC1CCCCC1)C(=O)NC(C)(C)C(=O)N[C@@H](CC(N)=O)C(=O)N[C@@H](CCCCN)C(=O)NC(C)(C)C(=O)N[C@H](C(=O)N[C@@H](CCCNC(=N)N)C(=O)N[C@@H](CCC(N)=O)C(=O)N[C@@H](CCCNC(=N)N)C(=O)N[C@@H](CC1CCCCC1)C(N)=O)[C@@H](C)O) [compound No. 252]
Human Y2 receptor [1]
  RBA IC50 Ratio: 6.3
Human Y2 receptor [2]
  GBA EC50 Ratio: 2.8

## 4-Guanidinomethylbenzoyl-[Nle25, Cha27,28,31,36, Arg30]-PYY(25-36) ({4‑Guanidinomethylbenzoyl}-[Nle]H[Cha][Cha]NR[Cha]TRQR[Cha]-NH2; SMILES CCCC[C@H](NC(=O)c1ccc(CNC(=N)N)cc1)C(=O)N[C@@H](Cc1c[nH]cn1)C(=O)N[C@@H](CC1CCCCC1)C(=O)N[C@@H](CC1CCCCC1)C(=O)N[C@@H](CC(N)=O)C(=O)N[C@@H](CCCNC(=N)N)C(=O)N[C@@H](CC1CCCCC1)C(=O)N[C@H](C(=O)N[C@@H](CCCNC(=N)N)C(=O)N[C@@H](CCC(N)=O)C(=O)N[C@@H](CCCNC(=N)N)C(=O)N[C@@H](CC1CCCCC1)C(N)=O)[C@@H](C)O) [compound No. 76]
Human Y2 receptor [1]
  RBA IC50 Ratio: 7.2
Human Y2 receptor [2]
  GBA EC50 Ratio: 4.5

## 4-Pyridinecarbonyl-[Glu23, D-Pro24, Nle25, Pya(4)26, Cha27,36, Aib28,31, Lys30]-PYY(23-36) (Isonicotinoyl-E[dP][Nle][4Pal][Cha][Aib]NK[Aib]TRQR[Cha]-NH2; SMILES CCCC[C@H](NC(=O)[C@H]1CCCN1C(=O)[C@H](CCC(=O)O)NC(=O)c1ccncc1)C(=O)N[C@@H](Cc1ccncc1)C(=O)N[C@@H](CC1CCCCC1)C(=O)NC(C)(C)C(=O)N[C@@H](CC(N)=O)C(=O)N[C@@H](CCCCN)C(=O)NC(C)(C)C(=O)N[C@H](C(=O)N[C@@H](CCCNC(=N)N)C(=O)N[C@@H](CCC(N)=O)C(=O)N[C@@H](CCCNC(=N)N)C(=O)N[C@@H](CC1CCCCC1)C(N)=O)[C@@H](C)O) [compound No. 228]
Human Y2 receptor [1]
  RBA IC50 Ratio: 8.1
Human Y2 receptor [2]
  GBA EC50 Ratio: 5.7

## 4-Pyridinecarbonyl-[Glu23, D-Pro24, Pya(4)26, Cha27,36, Aib28,31, Lys30]-PYY(23-36) (Isonicotinoyl-E[dP]R[4Pal][Cha][Aib]NK[Aib]TRQR[Cha]-NH2; SMILES C[C@@H](O)[C@H](NC(=O)C(C)(C)NC(=O)[C@H](CCCCN)NC(=O)[C@H](CC(N)=O)NC(=O)C(C)(C)NC(=O)[C@H](CC1CCCCC1)NC(=O)[C@H](Cc1ccncc1)NC(=O)[C@H](CCCNC(=N)N)NC(=O)[C@H]1CCCN1C(=O)[C@H](CCC(=O)O)NC(=O)c1ccncc1)C(=O)N[C@@H](CCCNC(=N)N)C(=O)N[C@@H](CCC(N)=O)C(=O)N[C@@H](CCCNC(=N)N)C(=O)N[C@@H](CC1CCCCC1)C(N)=O) [compound No. 215]
Human Y2 receptor [1]
  RBA IC50 Ratio: 1.9
Human Y2 receptor [2]
  GBA EC50 Ratio: 1.8

## Ac-[Aad23, D-Pro24, Cha27,28,36, Aib31]-PYY(23-36) (Ac-[Aad][dP]RH[Cha][Cha]NL[Aib]TRQR[Cha]-NH2; SMILES CC(=O)N[C@@H](CCCC(=O)O)C(=O)N1CCC[C@@H]1C(=O)N[C@@H](CCCNC(=N)N)C(=O)N[C@@H](Cc1c[nH]cn1)C(=O)N[C@@H](CC1CCCCC1)C(=O)N[C@@H](CC1CCCCC1)C(=O)N[C@@H](CC(N)=O)C(=O)N[C@@H](CC(C)C)C(=O)NC(C)(C)C(=O)N[C@H](C(=O)N[C@@H](CCCNC(=N)N)C(=O)N[C@@H](CCC(N)=O)C(=O)N[C@@H](CCCNC(=N)N)C(=O)N[C@@H](CC1CCCCC1)C(N)=O)[C@@H](C)O) [compound No. 159]
Human Y2 receptor [1]
  RBA IC50 Ratio: 2.8
Human Y2 receptor [2]
  GBA EC50 Ratio: 1.2
